Assay: yeast display, Sf9 membrane polyspecificity reagent, FACS + sequencing; frameworks hold sequencing errors
How it was run: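 Polyreactivity labels are assigned by the sorting gate from which each nanobody was recovered. The gates were low and high (top ~1%), set on anti-HA fluorescence for expression and streptavidin fluorescence for reagent binding. Before sorting, galactose-induced (36–48 hours) yeast display cells were stained for 1 hour at 4 °C with 10% biotinylated, detergent-solubilized Sf9 membrane reagent.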

Sequence | polyreactivity (PSR sort gate)
QVQIVESGGGLVQAGGSLRLSCAASGRIFRRYVMGWYRPAPGKERELVAAITKSGTSTYYADSVKGRFTISRDNAKNTVYLQMNSLKPEDTAVYYCAAVPYQSKYPRFGYWGQGTQVTVSS | high polyreactivity
QVQIVESGGGLVQAGGSLRLSCAASGRIFYAYAMGWYRQAPGKERELVAAISSGGSTKYADSVKGRFTISRDNAKNTVYLQMNSLKPEDTAVYYCNADATALSFGTLFDYWGQGTQVTVSS | low polyreactivity
QVQIVESGGGLVQAGGSLRLSCAASGRILWDYAMGWYRQATGKEWELVAAIDWSAGSTYYADSVKGRFTISRDTAKNTVYLQMNSLKPEDTAVYYCYIDYTYYYEDDFWGQGTQVTVSS | low polyreactivity
QVQIVESGGGLVQAGGSLRLSCAASGRISKFYTMGWYRQAPGKERELVADISYSGGSTYYADSVKGRFTISRDIEKNTVYLQMNSLKPEDTAVYFCSVDGLQRAIDYWGQGTQVTVSS | high polyreactivity
QVQIVESGGGLVQAGGSLRLSCAASGRSYAINAMGSYRQAPGKERELDASITTRDSSTYYADSVKGRFTISRDNAKNTVYLHMNSLKPEDTAVYYCAKVKLVTYLYRLFVYGSYYWGQGTLVTVSS | low polyreactivity
QVQIVESGGGLVQAGGSLRLSCAASGRTFGIYAMGWYRQAPGKERELVDAIRWRDGSTYYADSVKGRFTISRDNAKNTVYLQMTSLKPEDTAVYYCAATSRVYVRGSYWKYGYWGQGTQVTVSS | high polyreactivity
QVQIVESGGGLVQAGGSLRLSCAASGRTFQYYTMGWSRQAPGKEREFVAAIRDSGGSTYYADSVKGRFTISRDNAKNTVYLQMNSLKPEDTAVYYCAAYRPRKYDYWGQGTQVTVSS | high polyreactivity
QVQIVESGGGLVQAGGSLRLSCAASGRTFRYYTMGWYIQAPGKERELVAVISRSGGSTYYADSVKGRFTISRDNAKNTVYLQMNSLKPEDTAVYYCNAGYWRFIDSYDYWGPGTQVTVSS | high polyreactivity
QVQIVESGGGLVQAGGSLRLSCAASGRTFSKYAMGWYRQSTWKERELVASITWSGGTTNYADSVKGRVTISRDNAKNTVYLQMNSLKPEDTAVFYCNAQIASDGFNPGKSDYWGLGTQVTVSS | low polyreactivity
QVQIVESGGGLVQAGGSLRLSCAASGRTFYYNAMGWYRQAPGKERELVAAITWSGGGTYYADSVKGRFTISRDNAKNTVYLQMNSLKPEDTAVYYCAKTPGWTDYDYWGQGTQVTVSS | high polyreactivity
QVQIVESGGGLVQAGGSLRLSCAASGRTLKFNTMGWYRQAPGKERELVAAISGSGGSTYYADSVKGRFTISRDNAKNTVYLQMNSLKPEDTAVYYCAKYGVLRGYGYDYWGQGTQVTVSS | high polyreactivity
QVQIVESGGGLVQAGGSLRLSCAASGSIFASYTMGWYRQAPGKERELGATIRRTGSTYYADSVKGRFTISRDNAKNTVYLQMNSLKPDDTAVYYCAAGLRRKQGLTSGYEYGGQGTQVTVSS | high polyreactivity
QVQIVESGGGLVQAGGSLRLSCAASGSIFDGNAMGWYRQAPGKERELVAAITWRGTRTYYADSVKGRFTISRDNAKNTVYLQMNSLKPEDTAVYYCAATSYSTYILGGTRRYDYWGQGTLVTVSS | high polyreactivity
QVQIVESGGGLVQAGGSLRLSCAASGSIFDKNAMGWYRQAPGKEREFVAAITWSDGNTYYADSVKGRFTISRDNAKNTVYLQMNSLKREHTAVYYCNADALGVFWDRGGWFDDYWGQGTQVTVSS | low polyreactivity
QVQIVESGGGLVQAGGSLRLSCAASGSIFGTYAMGRYRQAPGKERELVAAINSGDSTYYADSVKGRFTISRDNAKNTVYLQMNSLKPEDTAVYYCGARETYWSGYFIYYYWGQGTQVNVSS | high polyreactivity
QVQIVESGGGLVQAGGSLRLSCAASGSIFRRYAMGWYRQEPGKERELVAAISSNGGSTYNADSVKGRFTISRDNAKNTVYLQMNSLKPEDTAVYYCNAPPLYRDEYWGQGTQVSVSS | high polyreactivity

Sequence | polyreactivity (PSR sort gate)
QVQIVESGGGLVQAGGSLRLSCAASGSIFTFYAMGWYRQAPGKERELVATINRIGGNTYYADSVKGRFTISRDNAKNTVYLQINSLKPEDTAVYYCAAKPTYRGYGYGSWGQGTQVTVSS | low polyreactivity
QVQIVESGGGLVQAGGSLRLSCAASGSIFTYYAMGWYRQAPGKERELVAAINWSGGSTYYADSVKGRFTISRDNAKNTVYLQMNSLKPEDTAVYYCATDYYARRHSPRYDYWGQGTQLTVSS | low polyreactivity
QVQIVESGGGLVQAGGSLRLSCAASGSIFWFYAMGWSRQAPGKERELVAAITWNGGRTYYADSVKGRFTISRDNAKNTVYLQMNCLKPEDTAVYYCNKVSGYDVDYWGHGTQVTVSS | high polyreactivity
QVQIVESGGGLVQAGGSLRLSCAASGSIFWPYTMGWYRQAPGKERELVAAISYSGGRTYYADSVKGRFTISRDNAKNTVYLQMNRLKPEDTAVYYCAAGTYSRGSREDYWGQGTQVTVSS | high polyreactivity
QVQIVESGGGLVQAGGSLRLSCAASGSIFYRNAMGWYRQAPGKERELVAAISSDGSTNYADSVKGRFTISRDNAKNTVYLQMNSLKPEDTAVYYCAAPWTQILDYWGQGTQVTVSS | low polyreactivity
QVQIVESGGGLVQAGGSLRLSCAASGSISVANAMGWYRQAPGKDRELVAAITDSGDDTYYADSVKGRFTISRDIAKNTVYLQMNSLKPEDTAVYYCAVEAWSVPPYDYWGQGTQVTVSS | low polyreactivity
QVQIVESGGGLVQAGGSLRLSCAASGSTFDDYVMGWYRQAPGKEREFVAAISTNGGSTYYADSVKGRFTISRDNAKNTVYLQMNSLKPEDTAVYYCAAESQDFYAILGLYDYWGQGTQVTVSS | low polyreactivity
QVQIVESGGGLVQAGGSLRLSCAASGSTFDYYAMGWYRQAPGKERELVAGISASGGSTYYADSVKGRFTISRDNAKNTVYLQMNRMKPEDTAVYYCASYYKPPGYDYWGQGTQVTVSS | low polyreactivity
QVQIVESGGGLVQAGGSLRLSCAASGSTFSRYAMGWYRQAPGKERELVAVITKSGGRTYYADSVKGRFRISRDNAKNTVYLQKHSLKAEDTADYYCAAYPNKSQTADGYWGQGTQVTVSS | high polyreactivity
QVQIVESGGGLVQAGGSLRLSCAASGSTIIRNAMGWSRQAPRKERELVAAISTSGGRTHYADSVKGRFTISRDNAKNTVYLQMNSLKPEDTAVYYCASRGKGHYYYWGQGTQVTVSS | high polyreactivity
QVQIVESGGGLVQAGGSLRLSCAASGTTFDAYAMGWYRQAPGKERELVAAITNAGSTNYADSVKGRFTISRDNAKNTVYLQMNSLKPEETAVYYCATDWYHRYLDGRYDYWGQGTQETVSS | low polyreactivity
QVQIVESGGGLVQAGGSLRLSCAASGTTFRFYAMGWYRQAPGKERELVAAIRRGGSTYYADSVKGRFTISRDNAKNTVYLQMNSLKPEDTAVYFCAAEPGYYSRPDYRVYRLYYWGLGTQVTVSS | high polyreactivity
QVQIVESGGGLVQAGGSLRLSCAASVRTQRYYDMGCYRQAPVKERELVAAISSGGSTYYGDSLKGRFSISRDNAKNTVYLEMNSLKPEDTEVYYCAKRVSNWVSGGGYYYWGQCTQVTVSS | high polyreactivity
QVQIVESGGGLVQAGGSLRLSCAAYGSIFVRNVMGWYRQAPGKERELVATIRYRGGSTYYADSVKGRFTISRDNAKNTVYLQMNSLKPEDTAVYYCNARYLWADEYYYWGQGTQVTVSS | low polyreactivity
QVQIVESGGGLVQAGGSLRLSCAPSGSTFGSNAMGWYRQAPGKERELVAAIRWSGGSTYYADSVKGRFTISRDNAKNTVYLQMNSLKPEDTAVYYCNAVYGRQYRGYNYKYYYWGQGTQVTVSS | high polyreactivity
QVQIVESGGGLVQAGGSLRLSCGASGRIFYNYALGWYRQAPGKERELVAAISGSGGSTYYADSVKGRFTISRDNAKNTVYLQMNSLKPEDTAVYYCSTSGPQYYSRNFDYWGQGTQVTVSS | low polyreactivity
